The values that follow come from patent US20190359687A1 (Bayer, published 2019).

Substitutions are numbered along the chain they refer to.

Sequences and labels used below:
T1: purified human glycophorin A protein (Sigma, cat # G5017) (human, UniProt P02724 20-150)
T1 construct: mature; also called Sigma hGPA; Sigma GPA
T1 sequence (looked up): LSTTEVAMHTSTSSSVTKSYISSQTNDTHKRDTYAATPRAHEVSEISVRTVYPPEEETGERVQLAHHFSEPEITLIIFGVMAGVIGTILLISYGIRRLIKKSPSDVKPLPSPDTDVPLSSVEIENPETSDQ

T2: human glycophorin A in the red blood cell membrane (human, UniProt P02724 20-150)
T2 construct: whole, on cells; used for intact RBC, isolated RBC membranes and transfected cells; the assay field tells which; also called GPA; hGPA
T2 sequence (looked up): T1 sequence (looked up)

T3: Rhesus monkey glycophorin A on Rhesus monkey red blood cells (Rhesus monkey, UniProt A0A1D5Q349 20-150)
T3 construct: whole, on cells; also called Rhesus RBC; monkey GPA
T3 sequence: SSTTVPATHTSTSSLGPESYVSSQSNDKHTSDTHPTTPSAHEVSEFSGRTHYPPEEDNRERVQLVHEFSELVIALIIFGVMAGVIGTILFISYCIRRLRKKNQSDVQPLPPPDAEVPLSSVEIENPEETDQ

T4: human glycophorin A on human red blood cells or red blood cell membranes (human, UniProt P02724 20-150)
T4 construct: whole, on cells; also called hRBC; human RBC membranes
T4 sequence (looked up): T1 sequence (looked up)

B1: Hu6C12-20 (antibody, V domains shown)
VH: EVQLVQSGAEVKKPGASVKVSCKASGYTFTTYTIHWVRQAPGQGLEWMGYINPSSDYTRYNPKFKDRVTMTTDTSTSTAYMELRSLRSDDTAVYYCQTGTRDYWGQGTTVTVSS
VL: DIQLTQSPSFLSASVGDRVTITCSAASSVSYIYWFQQKPGKAPKLLIYSTSTLPSGVPSRFSGSGSGTEYTLTISSLQPEDFATYYCHQRNSFPFTFGQGTKLEIK
notes: IgG format; VH.1c + Vk.1b
B2: Hu6C12-23 (antibody, V domains shown)
VH: B1 VH with M70L
VL: B1 VL
notes: IgG format; VH.1f + Vk.1b
B3: Hu6C12-22 (antibody, V domains shown)
VH: B1 VH with M70L, Q97A
VL: B1 VL
notes: IgG format; VH.1e + Vk.1b
B4: Hu6C12-24 (antibody, V domains shown)
VH: B1 VH with M48I, M70L, T74K
VL: B1 VL
notes: IgG format; VH.1g + Vk.1b
B5: TPP-7776, affinity matured 6C12 Fab (Fab, V domains shown)
VH: B1 VH with T33A, D56G, D66G, T72R, T74K
VL: B1 VL with S24R, A26S, S30R, S49A, P54R, F95Y
notes: Tested as Fab
B6: TPP-7787, affinity matured 6C12 Fab (Fab, V domains shown)
VH: B1 VH with T33A, D56G, D66G, T72R, T74K, Q97W
VL: B1 VL with S24R, A26S, S49A, L53R, P54Q, F95Y
notes: Tested as Fab
B7: TPP-7789, affinity matured 6C12 Fab (Fab, V domains shown)
VH: B1 VH with D56G, D66H, T72R, T74K, Q97W
VL: B1 VL with S24R, A26S, S30R, S49A, P54Q, F95Y
notes: Tested as Fab
B8: TPP-7788, affinity matured 6C12 Fab (Fab, V domains shown)
VH: B1 VH with S54K, D56G, Y57W, D66G, T72R, T74K
VL: B1 VL with S24R, A26S, S49A, T52F, L53R, P54Q, F95Y
notes: Tested as Fab
B9: TPP-7778, affinity matured 6C12 Fab (Fab, V domains shown)
VH: B1 VH with T33A, D56G, D66H, T72R, T74K
VL: B1 VL with S24R, A26S, S30R, S49A, P54Q, F95Y
notes: Tested as Fab
B10: TPP-7777, affinity matured 6C12 Fab (Fab, V domains shown)
VH: B1 VH with D56G, Y57W, D66G, T72R, T74K, Q97W, T100R
VL: B1 VL with S24R, A26S, S49A, L53R, P54Q, F95Y
notes: Tested as Fab
B11: TPP-7795, affinity matured 6C12 Fab (Fab, V domains shown)
VH: B1 VH with S54K, D56G, Y57W, D66G, T72R, T74K
VL: B1 VL with S24R, A26S, S49A, T52F, P54Q, F95Y
notes: Tested as Fab

The first assay concerns the target T1, purified human glycophorin A protein …. As to the kind of experiment: ELISA, IgG.
Molecule B1 returned a 50% effective concentration (EC50) of 0.393 nM.

For B2, a half-maximal effect (EC50) was put at 0.374 nM.

In turn, B3 had a half-maximal effective concentration (EC50) of 0.886 nM.

B4 registered an EC50 of 0.282 nM.

Another assay deals with T5, Cynomolgus monkey glycophorin A on Cynomolgus monkey red blood cells (Cynomolgus monkey).
T5 construct: whole, on cells; also called Cyno RBC; Cyno GPA
The assay is described as follows: FACS, RBC Cy01.
Method: (§1) The binding of the humanized variants to intact red blood cells (RBC) from humans (Hu01 to 03; 3 individuals), Rhesus monkey (Rh01 to 03; 3 individuals) and Cynomolgus monkey (Cy01 to 02; 2 individuals) was measured by fluorescence activated cell sorting (FACS).
Molecule B1 displayed a fluorescence intensity of 1070.

The molecule B2 displayed a fluorescence intensity of 1140.

Consider B3, for which the fluorescence intensity came to 991.

Molecule B4 displayed a fluorescence intensity of 1660.

The next assay deals with T5, Cynomolgus monkey glycophorin A on …. The assay is described as follows: FACS, RBC Cy02.
Method: as §1
In the case of B1, the fluorescence intensity is 1250.

On to B2, for which the fluorescence intensity was found to be 1320.

The molecule B3 came in with a fluorescence intensity of 1170.

As for B4, the fluorescence intensity came out at 1770.

For the next assay, the target named is T2, human glycophorin A in the red blood …. As to the kind of experiment: FACS, RBC Hu01.
Method: as §1
B1: the fluorescence intensity amounted to 1670.

The molecule B2 had a fluorescence intensity of 1680.

On to B3, for which the fluorescence intensity came to 1570.

For B4, the fluorescence intensity stood at 2250.

For the next assay the target is unchanged. The assay is described as follows: FACS, RBC Hu02.
Method: as §1
The molecule B1 displayed a fluorescence intensity of 1300.

With B2, the fluorescence intensity was determined as 1300.

B3: the fluorescence intensity is 1170.

Molecule B4 came in with a fluorescence intensity of 1850.

A further assay has the same target. The assay is described as follows: FACS, RBC Hu03.
Method: as §1
Molecule B1 returned a fluorescence intensity of 1460.

The molecule B2 had a fluorescence intensity of 1460.

The molecule B3 registered a fluorescence intensity of 1330.

For the molecule B4, the fluorescence intensity was 2100.

The next assay concerns the target T3, Rhesus monkey glycophorin A on Rhesus …. The assay is described as follows: FACS, RBC Rh01.
Method: as §1
For B1, the fluorescence intensity was 1670.

The molecule B2 displayed a fluorescence intensity of 1710.

B3: the fluorescence intensity turned out to be 1530.

For the molecule B4, the fluorescence intensity amounted to 2330.

The next assay has the same target. The assay is described as follows: FACS, RBC Rh02.
For B1, the fluorescence intensity came out at 1620.

For the molecule B2, the fluorescence intensity is 1680.

In turn, B3 yielded a fluorescence intensity of 1490.

B4 showed a fluorescence intensity of 2540.

The target is the same in a further assay. The assay is described as follows: FACS, RBC Rh03.
Method: as §1
Take B1: the fluorescence intensity was found to be 1550.

Molecule B2 showed a fluorescence intensity of 1700.

In the case of B3, the fluorescence intensity stood at 1450.

For B4, the fluorescence intensity worked out at 2370.

Another assay concerns the target T4, human glycophorin A on human red blood …. As to the kind of experiment: SPR (Biacore), Fab on human RBC membranes.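 Also: human RBC membranes captured on an L1 sensor chip, Fab fragments passed over as analyte, binding kinetics read by surface plasmon resonance.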
Method: (§2) Kinetic analysis of the antibody binding to human red blood cell membranes was also performed using surface plasmon resonance (SPR) using a Biacore instrument. In this assay membranes prepared from human red blood cells were attached to a L1 sensor matrix and antibodies were flowed over the RBC membranes.
(§3) The binding kinetics of the affinity matured Fab antibodies was also measured.
The molecule B5 yielded a Kd of 0.0829 nM and a koff of 0.00097 s⁻¹.

B6 had a Kd of 0.0222 nM, a koff of 0.000139 s⁻¹ and a kon of 6.25e+06 M⁻¹ s⁻¹.

Consider B7, for which binding was put at a Kd of 0.00799 nM and the koff turned out to be 0.000128 s⁻¹.

As for B8, the dissociation constant (Kd) is 0.136 nM, the koff amounted to 0.000413 s⁻¹ and the on-rate (kon) is 3.03e+06 M⁻¹ s⁻¹.

On to B9, for which the Kd came out at 0.011 nM and the off-rate constant (koff) stood at 0.0011 s⁻¹.

With B10, the Kd amounted to 0.0499 nM, the koff is 0.000371 s⁻¹ and the on-rate constant (kon) is 7.44e+06 M⁻¹ s⁻¹.

A further assay has the same target. The assay is described as follows: SPR (Biacore), Fab on human RBC membranes; T½ = 0.69/kd.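 Also: human RBC membranes captured on an L1 sensor chip, Fab fragments passed over as analyte, binding kinetics read by surface plasmon resonance.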
Method: as §2, §3
On to B5, for which the “Estimated T½” value is 12 min.

With B6, the “Estimated T½” value is 83 min.

For B7, the “Estimated T½” value was 90 min.

B8: the “Estimated T½” value was 28 min.

Regarding B9, the “Estimated T½” value was 10 min.

As for B10, the “Estimated T½” value is 31 min.

In another assay the target is T6, Cynomolgus monkey glycophorin A on Cynomolgus monkey red blood cells or red blood cell membranes (Cynomolgus monkey).
T6 construct: whole, on cells; also called Cyno RBC; Cynomolgus monkey RBC membranes
As to the kind of experiment: Fab 7 ug/ml on intact cyno RBC, unbound Fab by ELISA; pre-dilution.
Method: (§4) The binding of affinity matured Fab antibodies to intact Cynomolgus monkey RBC was measured. Cynomolgus monkey RBC were isolated from fresh anti-coagulated blood by centrifugation through a ficol gradient and washing in PBS buffer. RBC diluted to 1/10th of normal hematocrit were incubated with the Fab at a final concentration of 7 ug/ml for 1 hour at room temperature on a rotating shaker after which a sample was taken and the RBC were pelleted by centrifugation and the supernatant was collected. The remaining RBC suspension was diluted 200-fold in PBS buffer and incubated for a total of 2 hours at room temperature on a rotating shaker and samples were removed at 0, 5 min, 20 min, 1 h and 2 h and the RBC pelleted and the supernatant collected. […] The amount of Fab in the supernatants was then measured using an ELISA assay and the results used to calculate the percentage of the input Fab that was bound to the RBC.
As for B9, the “percentage of input antibody bound” value worked out at 81%.

In the case of B11, the “percentage of input antibody bound” value is 73%.

The target in the next assay is T4, human glycophorin A on human red blood …. The assay is described as follows: Fab 7 ug/ml on intact human RBC, unbound Fab by ELISA; pre-dilution.
Method: (§5) The binding of affinity matured Fab antibodies to intact human RBC was also measured. Human RBC were isolated from fresh anti-coagulated normal human blood by centrifugation through a ficol gradient and washing in PBS buffer. RBC diluted to 1/10th of normal hematocrit were incubated with purified Fab antibodies at a final concentration of 7 ug/ml for 1 hour at room temperature on a rotating shaker after which a sample was taken and the RBC were pelleted by centrifugation and the supernatant was collected. The remaining RBC suspension was diluted 200-fold in PBS buffer and incubated for a total of 2 hours at room temperature on a rotating shaker and samples were removed at 0, 5 min, 20 min, 1 h and 2 h and the RBC pelleted and the supernatant collected. The amount of Fab in the supernatants was then measured using an ELISA assay and the results used to calculate the percentage of the input Fab that was bound to the RBC. […] The percentage that remains bound after 200-fold dilution of the RBC suspension is an indication of the overall strength of the binding to human RBC.
For the molecule B9, the “percentage of input antibody bound” value is 95%.

Consider B11, for which the “percentage of input antibody bound” value came out at 95%.

A further assay shares this target. As to the kind of experiment: SPR (Biacore), Fab on human RBC membranes; * not accurate, instrument limit.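 Also: human RBC membranes captured on an L1 sensor chip, Fab fragments passed over as analyte, binding kinetics read by surface plasmon resonance.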
Method: as §2, §3
In turn, B5 had a kon of 1.17e+07 M⁻¹ s⁻¹.

B7 returned a kon of 1.61e+07 M⁻¹ s⁻¹.

As to B9, the kon was 1e+08 M⁻¹ s⁻¹.

A further assay deals with T6, Cynomolgus monkey glycophorin A on …. As to the kind of experiment: Fab on intact cyno RBC, unbound Fab by ELISA; 0 min after 200-fold dilution.
Take B9: the “percentage of input antibody bound” value was found to be 56%.

A further assay shares this target. As to the kind of experiment: Fab on intact cyno RBC, unbound Fab by ELISA; 5 min after 200-fold dilution.
Method: as §4
Consider B9, for which the “percentage of input antibody bound” value is 54%.

Regarding B11, the “percentage of input antibody bound” value was found to be 51%.

A further assay deals with T4, human glycophorin A on human red blood …. The assay is described as follows: Fab on intact human RBC, unbound Fab by ELISA; 0 min after 200-fold dilution.
Method: as §5
As for B9, the “percentage of input antibody bound” value turned out to be 84%.

In the case of B11, the “percentage of input antibody bound” value was 86%.

The next assay shares this target. The assay is described as follows: Fab on intact human RBC, unbound Fab by ELISA; 5 min after 200-fold dilution.
Method: as §5
For B9, the “percentage of input antibody bound” value worked out at 76%.

Take B11: the “percentage of input antibody bound” value was 74%.

The target of a further assay is T6, Cynomolgus monkey glycophorin A on …. As to the kind of experiment: Fab on intact cyno RBC, unbound Fab by ELISA; 20 min after 200-fold dilution.
For B9, the “percentage of input antibody bound” value came to 48%.

On to B11, for which the “percentage of input antibody bound” value was determined as 39%.

A further assay has the same target. As to the kind of experiment: Fab on intact cyno RBC, unbound Fab by ELISA; 60 min after 200-fold dilution.
On to B9, for which the “percentage of input antibody bound” value was 36%.

Consider B11, for which the “percentage of input antibody bound” value came to 29%.

The next assay deals with T4, human glycophorin A on human red blood …. The assay is described as follows: Fab on intact human RBC, unbound Fab by ELISA; 20 min after 200-fold dilution.
Method: as §5
For the molecule B9, the “percentage of input antibody bound” value came to 66%.

Turning to B11, the “percentage of input antibody bound” value was 63%.

For another assay the target is unchanged. The assay is described as follows: Fab on intact human RBC, unbound Fab by ELISA; 60 min after 200-fold dilution.
On to B9, for which the “percentage of input antibody bound” value was 66%.

On to B11, for which the “percentage of input antibody bound” value stood at 63%.

A further assay concerns the target T6, Cynomolgus monkey glycophorin A on …. The assay is described as follows: Fab on intact cyno RBC, unbound Fab by ELISA; 120 min after 200-fold dilution.
Method: as §4
Turning to B9, the “percentage of input antibody bound” value worked out at 27%.

In the case of B11, the “percentage of input antibody bound” value came out at 22%.

The target of a further assay is T4, human glycophorin A on human red blood …. The assay is described as follows: Fab on intact human RBC, unbound Fab by ELISA; 120 min after 200-fold dilution.
Method: as §5
B9: the “percentage of input antibody bound” value was 64%.

On to B11, for which the “percentage of input antibody bound” value was 63%.
